According to patent US20240279618A1, “RECEPTOR TYROSINE KINASE AGONIST, COMPOSITION FOR CELL CULTURE MEDIUM, AND […] MAINTENANCE COMPOSITION” (SEKISUI CHEMICAL CO., LTD., priority 2021, published 2024):

B1: VHH Clone #1: alpaca-derived VHH single-domain antibody (monomer) binding FGFR1, amino acid sequence SEQ ID NO: 17 (protein)
VHH: QLQLVESGGGSVQAGGSLRLSCAASRSLSRFNVWTWYRQAPVKQRELVASITKSGDTNYAESVKGRFIISRDDDKNTVYLQMNNLKSEDTGIYYCAGSYYSGSYLYPSPGGFSVWGQGTQVTVSS
modifications: VHH_Clone_#1
B2: VHH Clone #2: alpaca-derived VHH single-domain antibody (monomer) binding FGFR1, amino acid sequence SEQ ID NO: 18 (protein)
VHH: QVQLVESGGGLVQAGGSLRLSCAVPGSIFRFNTMGWYRQPPGKQRELVAQMSRGGITKYGDSVKGRFTITRDNAKNTVHLQMNSLKPEDTAVYYCAGSYYSGSYYYPSPQGFSVWGQGTQVTVSP
modifications: VHH_Clone_#2

Test system: phospho-p44/42 MAPK (Erk½)
Assay: Agonist activity by In Cell ELISA in NIH3T3 cells
Assay type: cell-based, mouse
Settings: 30 minutes stimulation, final dilution ratio 100-fold, relative to no stimulus = 1
Text: In order to verify the agonist activity of the purified VHH (monomer), the expression level of phospho-p44/42 MAPK (Erk½) was […] by using an In Cell ELISA method. VHH (monomer) was allowed to act on the cells such that the final dilution ratio was 100-fold. In addition, as a positive control, FGF2 (fibroblast growth factor (basic) (FGF-basic/bFGF/FGF2), human, recombinant, animal-derived substance-free (154aa): product code 068-05384; manufactured by Fujifilm Wako Pure Chemical Corporation: final concentration: 100 ng/mL) was used. The experimental procedure was as described below.
A D-MEM (D6429, manufactured by Sigma-Aldrich Co., LLC) medium including a 10% fetal bovine serum (S0400, manufactured by BWT) and 1% Penicillin-Streptomycin Mixed Solution, 26253-84, manufactured by Nacalai Tesque, Inc.) was prepared, NIH3T3 (CRL1658, ATCC) was suspended therein, and the suspension was seeded on a 96-well plate for cell culture at 1× 10^4 cells/well and cultured overnight at 37° C. with light shielded in a 5% CO2 incubator. The medium in each well was removed and the inside of each well was washed with a serum-free medium. […]

Molecule | agonist activity (expression level of phospho-p44/42 MAPK (Erk½))
B1 | none of the VHHs (monomers) have an agonist activity
B2 | none of the VHHs (monomers) have an agonist activity
